According to article PMC9382030 (Current biology : CB, 2022):

Biological target: T1, phosphatidylinositol 4-phosphate 5-kinase type-1 gamma (PIP5K1C) (human, UniProt O60331 1-668)
T1 construct: PIP5K1C, human; also called PIPK1 gamma 90; source: Sf9, baculovirus, purified (amylose resin, HRV-3C cleavage, SEC); not shown: His6, N-terminal, cleaved; MBP, N-terminal, cleaved
Test: pull-down; purified GST, GST-Arf6-T27N or GST-Arf6-Q67L bound to GSH agarose as bait; purified PIP5K1C 400 nM as prey, 1 h at 4 °C; 20 mM HEPES, 250 mM NaCl, 0.5 mM TCEP; SDS-PAGE and Coomassie staining
Settings: both partners purified

T1 sequence (O60331 whole entry): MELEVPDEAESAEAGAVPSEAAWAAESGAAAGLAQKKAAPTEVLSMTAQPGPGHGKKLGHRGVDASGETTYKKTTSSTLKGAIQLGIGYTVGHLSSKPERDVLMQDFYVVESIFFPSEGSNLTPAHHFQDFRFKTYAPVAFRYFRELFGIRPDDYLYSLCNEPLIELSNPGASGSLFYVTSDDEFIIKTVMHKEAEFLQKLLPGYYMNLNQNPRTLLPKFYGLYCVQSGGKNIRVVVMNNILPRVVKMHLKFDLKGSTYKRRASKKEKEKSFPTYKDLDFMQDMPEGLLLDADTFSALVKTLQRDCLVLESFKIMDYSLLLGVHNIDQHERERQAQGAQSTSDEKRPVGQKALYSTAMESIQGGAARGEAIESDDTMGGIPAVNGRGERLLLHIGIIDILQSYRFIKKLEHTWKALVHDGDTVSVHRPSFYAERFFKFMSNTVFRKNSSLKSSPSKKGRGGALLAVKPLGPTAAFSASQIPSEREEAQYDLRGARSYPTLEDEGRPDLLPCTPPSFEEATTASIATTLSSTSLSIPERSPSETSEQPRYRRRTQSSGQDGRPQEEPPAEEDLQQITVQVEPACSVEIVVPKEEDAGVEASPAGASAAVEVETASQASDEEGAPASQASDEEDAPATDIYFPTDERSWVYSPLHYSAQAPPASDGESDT

binding result: binds
B1: GST-Arf6-Q67L (natural protein, human, UniProt P62330 1-175, looked up)
chain: MGKVLSKIFGNKEMRILMLGLDAAGKTTILYKLKLGQSVTTIPTVGFNVETVTYKNVKFNVWDVGGLDKIRPLWRHYYTGTQGLIFVVDCADRDRIDEARQELHRIINDREMRDAIILIFANKQDLPDAMKPHEIQEKLGLTRIRDRNWYVQPSCATSGDGLYEGLTWLTSNYKS
notes: Arf6, human; pGEX-6P-1 Arf6-Q67L; In the phosphoinositide conversion assay an N-terminal 6xHis form (pOCC3) was used instead; also called constitutively active Arf6; source: E. coli BL21, purified (GSH agarose, SEC); not shown: GST, N-terminal, kept
